# Measured values published in paper PMC8866119 (Nature, 2021).
# Target: SARS-CoV-2 Omicron (B.1.1.529) RBD (SARS-CoV-2 Omicron B.1.1.529 (BA.1), strain)
row,Binder,binding result
1,"BD-744 (antibody, V domains shown) VH: EVQLVESGGGLVQPGRSLRLSCAASGFTFDDYAMHWVRQAPGKGLEWVSGASWNSGTIGYADSVKGRFIIIRDNAKNSLYLQMNSLRSEDTASYYCAKDFSRDGDAFDIWGQGTMVTVSS VL: SYVLPQPPSVSVAPGKTARITCGGNNIEHKSVHWYQQKPRQAPVVVMYYDSDRPSGIPERFSGSNSGNTATLIISRVEAGDEAEYYCQVWDRSSDQPVFGGGTKLTVL",binds
2,"BD55-1104 (antibody, V domains shown) VH: EVQLVQSGAEVKKPGESLKISCKGSGYSFTTYWTGWVRQVPGKGLEWMGLIYPRDSDARYTPSFEGHVTISADNSINTAYLHWSSLKASDTAIYYCVSAGDTGWRGHADYWGQGTLVTVSS VL: DIQMTQSPSSLSASVGDRVTITCRASLDIRNYLVWFQQKPGTAPKSLIYEASTLQSGVPSRFSGSGSGTDFTLTISSLRPEDFATYYCQQYNTWPFTFGGGTKVEIK",binds
3,"BD55-387 (antibody, V domains shown) VH: QITLKESGPTLVKPTQTLTLTCTFSGFSLSTSGVGVGWIRQPPGKALEWLALIYWDDDKRYSPALKSRLTITEDTSKNQVVLTMTNMDPVDTATYYCAHCAPAWNYFDYWGQGTLVAVSS VL: QSVLTQPPSVSGAPGQRVTISCTGSSSNIGAGYDVHWYQQLPGTAPKLLIYRNSNRPSGVPGRFSGSKSGTSASLAITGLQAEDEADYFCQSYDSSLSGWVFGGGTKLTVL",binds
4,"BD-836 (antibody, V domains shown) VH: QVQLVQSGPEVKKPGTSVRVSCKASGFTFSTSAVQWVRQARGQRLEWIGWIAVGSGKTDYLQKFQERVTMTRDESTNTAYMQLSSLRSEDTAVYYCAAPHCSGGTCYDGFDIWGQGTLVTVSS VL: EIVLTQSPGTLSLSPGERATLSCRASQSVRSGYFAWYQQRPGRAPRLLIYGASSRATAIPDRFSGSGSGTDFTLTINRLEPEDFAVYYCQQYGTSPWTFGQGTKVEIK",binds
5,"BD55-3637 (antibody, V domains shown) VH: QVQLVESGGGVVQPGRSLRLSCAASGFTFSTYGMHWVRQAPGKGLQWVAFISDGGNKKYFADSVKGRFTISRDNSKNTLYLQMSSLRTEDTAVYYCAKERYCAGGDCSNPFFDYWGQGTLVTVSS VL: DIQVTQSPSSLSASVGDRVTITCRASQSISSSLNWYQHKPGNAPKLLIYAASSLQSGVPSRFSGSGSGTDFILTISSLQPEDFATYYCQQSHSFPRTFGQGTKVEFR",binds
6,"BD55-5386 (antibody, V domains shown) VH: QVQLLQSGAEVKKPGSSVTVSCKASGGTFTNSAINWVRQAPGQGLEWIGGIIPIIGPTSYAQKFQGRVTITADESSTTAYLDLRSLRSDDTAVYYCAKAHCGDCTPPRGYYFYYFGMDVWGQGTTVTVSS VL: SYELTQPPSVSVSPGQTARITCSGDALPKQYSYWYQQRPGQAPVLLIYKDNERPSGIPERFSGSSSGTTVTLTISGVQAEDEADYYCQSADASSTYVVFGGGTKLTVL",binds
7,"BD55-1962 (antibody, V domains shown) VH: QVQLVQSGAEVKKPGSSVKVSCTASGDSFSSYAITWVRQAPGQGLEWMGRIIPILGIANYAQKFQGRVTLTADKSAGTAYMELSSLRSDDTAVYYCASGYDFHFDYWGQGTLVTVYS VL: QSALTQPASVSGSPGQSITISCTGTSSDVGDYKYVSWYQQHAGKAPKLMIHDVSKRPSGVSSRFSGSKSGNTASLTISGLQAEDEADYYCSSYTSSSSWVFGGGTKLTVL",binds
8,"COV2-2072 (antibody, V domains shown) VH: QMQLVQSGPEVKKPGTSVKVSCKTSGFTFTSSAIQWVRQARGQRLEWIGWIVVGSGNTNYAQKFQERVTITRDMSTSTAYMELSSLRSEDTAVYYCAAPHCNRTSCYDAFDLWGQGTMVTVSS VL: not shown",binds
9,"COV2-2381 (antibody, V domains shown) VH: QMQLVQSGPEVKKPGTSVKVSCKASGFTFTSSAVQWVRQARGQRLEWIGWIAVGSGNTNYAQKFQERVSITRDMSTSTAYMELSSLRSEDTAVYYCAAPYCSRTSCHDAFDIWGQGTKVTVSS VL: EVVLTQSPGTLSLSPGERATLSCRASQSVSSSYLAWYQQKPGQAPRLLIYGASSRATGIPDRFSGSGSGTDFTLTISRLEPEDFAVYHCQHFGSSSQWTFGQGTKVEIK",binds
10,"BG4-25 (antibody, V domains shown) VH: EVQLVESGGGLIQPGGSLRLSCAASGITVVRNYMTWVRQAPGKGLEWVSVIYSGGTTYYADSVKGRFTISRDNSKNTMYLQMNSLRAEDTAIYYCARDLEVVGAMDVWGQGTTVTVSS VL: EIVLTQSPGTLSLSPGERATLSCRASQSVPSSYLAWYQQKPGQAPRLLIYGASSRATGIPDRFSGSGSGTDFTLTISRLEPEDFAVYYCQQYGSPMYTFGQGTKLEIK",binds
11,"BD55-5293 (antibody, V domains shown) VH: EVQLVQSGAEVKKPGESLKISCKTSGYSFISNWIGWVRQMPGKGLEWMGIIYPGDSDTRYSPSFQGQVTISVDKSISTAYLQWTSLKASDTAMYFCTRRGDYGEFGGFDGDWGQGTLVTVTS VL: DIQMTQSSSSLSASVGDRVTITCRASQSTGRYLNWYQQKAGKAPKLVIYAVSSLQSGVPSRFSGSGSGTEFTLTINSLQPEDFATYYCQQTYSIPFTFGPGTKVDLK",binds
12,"LY-CoV1404 (antibody, V domains shown) VH: QITLKESGPTLVKPTQTLTLTCTFSGFSLSISGVGVGWLRQPPGKALEWLALIYWDDDKRYSPSLKSRLTISKDTSKNQVVLKMTNIDPVDTATYYCAHHSISTIFDHWGQGTLVTVSS VL: QSALTQPASVSGSPGQSITISCTATSSDVGDYNYVSWYQQHPGKAPKLMIFEVSDRPSGISNRFSGSKSGNTASLTISGLQAEDEADYYCSSYTTSSAVFGGGTKLTVL",binds
13,"BD-369 (antibody, V domains shown) VH: EVQLVESGGGLVQPGGSLRLSCAASGITVSSNYMTWVRQAPGKGLEWVSLIYSGGSTYYADSVKGRFTISRDNSKNTLHLQMNSLRGEDTAVYYCARDLVAFGMDVWGQGTTVTVSS VL: AIQLTQSPSSLSASVGDRVTITCRASQGISSYLAWYQQKPGKAPKLLIYAASTLQGGVPSRFSGSGSGTDFTLTISSLQSEDSATYYCQQLNSDTPTFGPGTKVEIK",binds
14,"BD-804 (antibody, V domains shown) VH: EVQLVESGGGLVKPGGSLRLSCAASGFTFSNYDMNWVRQAPGKGLEWVSSISSSSTYTHYADSVKGRFTISRDNAKNSLYLQMNSLRAEDTAVYYCARDRAYRLGELSSLWGDDAFDIWGQGTMVTVSS VL: AVWMTQSPSLLSASTGDRVTVSCRMSQDISSYLAWYQQKPGKAPELLIYAAFTLQSGVPSRFSGSGSGTEFTLTISSLQSEDFATYYCQQYYSFPHTFGQGTKLERR",binds
15,"BD-614 (antibody, V domains shown) VH: QVQLVESGGGLVQPGGSLRLSCAASGLIVSSNYMSWVRQAPGEGLEWVSVIYSGGSTYYADSVKGRFTISRDTSKNTLYLQMNSLRAEDTAVYYCARARIYTYGPDYWGQGTLVTVSS VL: not shown",binds
16,"BD55-3152 (antibody, V domains shown) VH: QVQLVQSGAEVKKPGASVIVSCKASGYRFISHYIHWVRQAPGQGLEWMGKIDPSGRGTTYAQKLQGRVSVTRDTSTSSVYMALSGLRSDDTAVYYCARDRFPLSDPYVWGSPLGGLDVWGQGTTVIVSS VL: SYDLTQPPSVSVSPGQTARITCSGDALPSQYVYWYQQRPGQAPVLVMYKDSERPPGIPERFSGSTSGTTATLTITGVQAEDEADYYCQSADASTTYHVFGGGTKVTVV",binds
17,"BD-932 (antibody, V domains shown) VH: EVQLVESGGALVHPGRSLRLSCTASGFTFEDYAMHWVRQAPGKGLEWVSGVSWNSGTIGYADSVKGRFIISRDNAKNSLYLQMLSLRVEDTAFYYCAKHGGLLDTSLDQYYFDYWGQGTLVTVSS VL: not shown",binds
18,"BD-618 (antibody, V domains shown) VH: EVQLVESGGGLVQPGGSLRLSCAVSGFIVSRNYMTWVRQAPGKGLEWVSLIYSGGSTFYTNSVKGRFTISRDNSKNTLYLQMDSLRAEDTAVYYCARGPYPRFDYWGQGTLVTVSS VL: not shown",binds
19,"BD-914 (antibody, V domains shown) VH: QVQLVQSGAEVTKPGSSVKVSCKTSGDTFSLYPISWVRQAPGQGLEWMGRIIPIVGIADYAQKFQGRVTITADKSTSTAYMELSSLRSEDTAIYYCARDGNQYYYDSGGDYYVNYWGQGTLITVSS VL: DIQMTQSPSSLSASVGDRVTITCQASQDIRKDLNWYRQRPGKAPKLLIYDASNLETGVPSRFSGSGSGTHFTFTISGLQPEDVATYYCQQYDNVPVTFGPGTKVDIR",binds
20,"BD-566 (antibody, V domains shown) VH: QVQLVESGGGVVQPGRSLRLSCAASGFTFRSYGMHWVRQAPGKGLEWVAVISKDGSNKYYADSVKGRFTISRDNSKNTLYLQWNSLRAEDTAVYYCARALVVPGAPRYYYYGMDVWGQGTTVTVSS VL: AIQLTQSPSSLSASVGDRVTITCRASQGISSALAWYQQRPGKAPKLLIYDASTLESGVPSRFSGSGSGTDFTLTISSLQPEDFATYYCQQFNTYPWTFGQGTKVELK",binds
21,"BD-812 (antibody, V domains shown) VH: EVQLVQSGAEVKKPGESLKISCQFSEYKLISFWIAWVRQRPGKGLEWMGIIYPDDSDTKYSPSSQGQVTISADKSIRTAYLQWSSLMASDTAMYYCTSGSYYGTLDFWGQGTLVTVSS VL: DIEITQSPSSLSASVGDRVTISCRASQDIRTYVAWYQQRPGKVPRLLIYAASTLQSGVPSRFSGRGSGTDFTLTISSLQPEDVATYYCQQYNSAPLTFGGGAKVEIK",binds
22,"S2E12 (antibody, V domains shown) VH: not shown VL: DIVLTQTPGTLSLSPGERATLSCRASQSVSSSYLAWYQQKPGQAPRLLIYGASSRATGIPDRFSGSGSGTDFTLTISRLEPEDFAVYYCQQYVGLTGWTFGQGTKVEIK",binds
23,"COVOX-222 (antibody, V domains shown) VH: EVQLVESGGGLIQPGGSLRLSCAASGLTVSSNYMSWVRQAPGKGLEWVSVIYSGGSTFYADSVKGRFTISRDNSKNTLYLQMNSLGAEDTAVYYCARGEGSPGNWFDPWGQGTLVTVSS VL: DVVMTQSPGTLSLSPGERATLSCRASQSVPSSYLAWYQQKPGQAPRLLIYGASTRATGIPDRFSGSGSGTDFTLTISRLEPEDFAVYYCQHYDTSPRFGGGTKVDIK",binds
24,"BD55-1706 (antibody, V domains shown) VH: QVQLQESGPGLLKPSETLSLTCTVSGGSINSYYWNWIRQSPRKGLEWIGYIFFSGSTNYNPSLKSRVTISLDRSKNQFSVHLRSVTAADTAVYYCARGDSKTGYDLELFDYWGHGTLVTVSS VL: not shown",binds
